This note sets out measurements from patent publication US20190367616A1 (SYMPHOGEN A S, published 2019).

Substitutions are numbered along the chain they refer to. In names and notes the source's numbering stands.

T1: mouse PD-1 ECD (Sino Biological cat. no. 50124-MO8H) (mouse, UniProt Q02242 25-169)
T1 construct: extracellular domain; Bought monomeric ECD
T1 sequence (looked up): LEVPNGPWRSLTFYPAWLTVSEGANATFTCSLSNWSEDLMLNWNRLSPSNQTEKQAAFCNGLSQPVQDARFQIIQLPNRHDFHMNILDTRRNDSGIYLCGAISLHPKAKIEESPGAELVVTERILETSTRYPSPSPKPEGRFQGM

B1: antibody 18049 (antibody, V domains shown)
VH: QVQLVESGGGVVQPGRSLRLSCAASGFTFSNYGMHWVRQAPGKGLEWVAVIWYDGSDKYYADSVKGRFTISRDNSKNTLYLQMNSLRAEDTAVYYCAGGGNYYGDFWGQGTLVTVSS
VL: EIVMTQSPSSLSASVGDRVTITCRASQGIRNDLGWYQQKPGKAPKRLIYVASNLQSGVPSRFSGSGSGTEFTLTISSLQPEDFATYYCLQYNSYPWTFGQGTKVEIKR
notes: Tested as human IgG1 L234A/L235A (LALA), kappa
B2: antibody 18400 (antibody, V domains shown)
VH: QLQLQESGPGLVKPSGTLSLTCAVSGGSISSSNWWSWVRQPPKKGLEWVGEIFHDGTTSYNPSLKSRVTMSVDKSKNQFSLKLSSVTAADTAVYYCARGNWGSGALDIWGPGTMVTVSS
VL: B1 VL with S10P, R46L, V50A, N53S, E70D, Y91D, N92Y, S93N, W96R
notes: as for B1
B3: antibody 18098 (antibody, V domains shown)
VH: QVQLQESGGGLVRPGGSLRLSCAASGFTFSSFAMNWVRQAPGKGLVWVSTITGGGTTSYYADSVKGRFTISRDNSKSTLFLQMNSLRAEDTAVYYCAKWGSWSAGAFDIWGQGTTVTVSS
VL: DIQLTQSPSSVSASVGDRVTITCRASQGISSWLAWYQQKPGKAPKLLIYAASSLQSGVPSRFSGSGSGTDFTLTISSLQPEDFATYYCQQANSFPWTFGQGTKVEIKR
notes: as for B1
B4: antibody 18325 (antibody, V domains shown)
VH: QVQLQQSGGGLVQPGGSLRLSCAASGFTFSSHVMNWVRQAPGKGLEWVATISGSGVDTYYADSVKGRFTISRGNSKNMLYLQMNSLRAEDTAVYYCAKWGSWSAGAFDIWGQGTMVTVSS
VL: B3 VL with D1E, Q3V
notes: as for B1
B5: antibody 18413 (antibody, V domains shown)
VH: EVQLVESGGGLVQPGGSLRLSCAASGFTFSSFVMSWVRQAPGKGLEWLSTISGGGGSTYYADSVKGRFTISRDNSKNTLYLQMNSLRAEDTAVYYCAKDWDLYYFDYWGQGTLVTVSS
VL: B3 VL with S12P, S31N, W96L, Q100G
notes: as for B1
B6: antibody 18483 (antibody, V domains shown)
VH: QVQLQQSGGGLVQPGGSLRLSCAASGFTFSDYWMNWVRQAPGKGLEWVANIKEDGNEKYYVDSVKGRFTISRDNAKNSLYLQMNSLRAEDTAVYYCARDTNWGSDYWGQGTLVTVSS
VL: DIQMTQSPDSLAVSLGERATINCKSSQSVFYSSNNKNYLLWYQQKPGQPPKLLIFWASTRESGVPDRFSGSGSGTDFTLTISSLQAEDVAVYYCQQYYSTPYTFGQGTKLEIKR
notes: as for B1
B7: antibody 18040 (antibody, V domains shown)
VH: QVQLVESGGGLVKPGGSLRLSCAASGFTFSDYYMNWIRQAPGKGLEWVSYISSTGSTIYYADSVKGRFTISRDNAKNSLYLQMDSLRAEDTAVYYCARATNWGSDYWGQGTLVTVSS
VL: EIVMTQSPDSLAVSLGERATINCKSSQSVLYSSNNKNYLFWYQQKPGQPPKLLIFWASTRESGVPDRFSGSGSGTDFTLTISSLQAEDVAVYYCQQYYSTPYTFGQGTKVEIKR
notes: Tested as human IgG1 L234A/L235A (LALA), kappa; The VH/VL entries carry X at variable positions
B8: antibody 18113 (antibody, V domains shown)
VH: B7 VH with N35S, T54S, V64A, D84N, A99D, G103A, S104F
VL: DIQLTQSPDSLAVSLGERATINCKSSQSVFYSANNKNYLAWYQQKPGQPPKLLIYWTSTRESGVPDRFRGSGSGTDFTLTISSLQAEDVAVYYCQQFYSTPRTFGQGTKVEIKR
notes: as for B1

T2 sequence (Q15116 25-170, one chain of several): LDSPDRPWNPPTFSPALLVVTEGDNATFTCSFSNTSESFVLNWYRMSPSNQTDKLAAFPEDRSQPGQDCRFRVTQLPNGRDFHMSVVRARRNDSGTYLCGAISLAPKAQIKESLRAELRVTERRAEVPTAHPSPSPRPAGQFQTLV

One assay concerns the target T2, human PD-1 ECD (Acro Biosystems cat. no. PD1-H52219) (human, UniProt Q15116 25-170).
T2 construct: extracellular domain; Bought monomeric ECD; also called monomeric PD-1 antigen
In words: SPR, antibody on sensor, monomeric PD-1 ECD in solution. Here is the method: (§1) The kinetic binding analysis was performed by Surface Plasmon Resonance (SPR) using a Continuous Flow Microspotter (CFM, Wasatch Microfluidics, US) combined with an Ibis MX96 SPR instrument (IBIS Technologies, The Netherlands). Surface Plasmon Resonance imaging analysis was performed on G-a-hu-IgG Fc SensEye® SPR sensors (Ssens BV, The Netherlands). Anti-PD-1 antibodies expressed in IgG₁ LALA format (i.e., having the mutations L234A/L235A) were diluted to 2.5 nM in PBS-T (1×PBS with 0.05% Tween 20, pH 7.4). Antibodies were spotted onto a G-a-hu-IgG Fc SensEye® for 15 minutes using a Continuous Flow Microspotter (CFM, Wasatch Microfluidics, Salt Lake City, US). After spotting, the SensEye® was positioned in the IBIS MX96 biosensor, and antibodies were chemically fixed to the sensor surface using Fix It Kit (Ssens BV, The Netherlands). Kinetic analysis was performed by applying a kinetic titration series (Karlsson et. al., Anal. Biochem. 349(1):136-47 (2006)), where monomeric PD-1 antigen was injected in increasing concentrations from 2 nM to 100 nM without application of surface regeneration steps after each antigen injection. Binding was tested to human PD-1 ECD (Acro Biosystems cat. no. PD1-H52219), mouse PD-1 ECD (Sino Biological. cat. no. 50124-MO8H) and cynomolgus PD-1 ECD (Acro Biosystems cat. no. PD1-05223) in three separate experiments. Antigen association was performed for 15 minutes and antigen dissociation was performed for 60 minutes. The kinetic analysis was performed at 25° C. After completion, the recorded binding responses were fitted to a simple Langmuir 1:1 binding model with Scrubber 2 software for calculation of the on-rate (kₒₙ or kₐ), off-rate (koff or kd) and affinity (KD) constants.
On the technique in general: SPR reads the build-up and loss of mass on a sensor chip optically.
B1 came in with a Kd of 1.8 nM, a koff of 6e-05 s⁻¹ and a kon of 34000 M⁻¹ s⁻¹.
B2 had a Kd of 1.6 nM, a koff of 0.00035 s⁻¹ and a kon of 230000 M⁻¹ s⁻¹.
For B3 the same measures were 2.3 nM, 0.00023 s⁻¹ and 100000 M⁻¹ s⁻¹.
For B4 the same measures were 0.82 nM, 0.00011 s⁻¹ and 130000 M⁻¹ s⁻¹.
In the case of B5, binding was put at a Kd of 1.5 nM, the koff was 0.00011 s⁻¹ and the kon is 77000 M⁻¹ s⁻¹.
For the molecule B6, the Kd is 0.29 nM, the off-rate (koff) worked out at 0.00017 s⁻¹ and the kon was found to be 580000 M⁻¹ s⁻¹.
The matching figures for B7: 0.41 nM, 0.00011 s⁻¹ and 260000 M⁻¹ s⁻¹.
For B8 the same measures were 0.6 nM, 0.0001 s⁻¹ and 170000 M⁻¹ s⁻¹.

The target of another assay is T3, cynomolgus PD-1 ECD (Acro Biosystems cat. no. PD1-05223) (cynomolgus, UniProt B0LAJ3 25-170).
T3 construct: Bought monomeric ECD; not shown: any purification tag of the vendor's product (Acro Biosystems PD1-05223, probably a His tag)
T3 sequence (B0LAJ3 entry or part of it limits assumed): as the sequence (Q15116 25-170, one chain of several) above, with D2E, P10A, V19L, T35A, Q75R, T144A counted along it
Described as above. Here is the method: as §1
In turn, B1 gave a Kd of 2.1 nM, a koff of 8e-05 s⁻¹ and a kon of 38000 M⁻¹ s⁻¹.
The matching figures for B2: 3.7 nM, 0.00087 s⁻¹ and 230000 M⁻¹ s⁻¹.
B3 registered a Kd of 34 nM, a koff of 0.0013 s⁻¹ and a kon of 39000 M⁻¹ s⁻¹.
The matching figures for B4: 4.3 nM, 0.00062 s⁻¹ and 140000 M⁻¹ s⁻¹.
The matching figures for B5: 6.4 nM, 0.00062 s⁻¹ and 97000 M⁻¹ s⁻¹.
Regarding B6, the Kd was 3.1 nM, the koff is 0.0008 s⁻¹ and the kon came out at 260000 M⁻¹ s⁻¹.
For B7 the same measures were 2.9 nM, 0.00097 s⁻¹ and 340000 M⁻¹ s⁻¹.
For B8 the same measures were 5.3 nM, 0.00076 s⁻¹ and 140000 M⁻¹ s⁻¹.

The target of another assay is T1, mouse PD-1 ECD (Sino Biological cat. …). The description is as above. Here is the method: as §1
As for B1, the binding result is given as “no binding (tested: 100 nM)”.
As for B2, the Kd turned out to be 11 nM, the off-rate constant (koff) is 5e-05 s⁻¹ and the kon is 4700 M⁻¹ s⁻¹.
Turning to B3, the binding result is reported as “no binding (tested: 100 nM)”.
As to B4, the binding result is recorded as “no binding (tested: 100 nM)”.
On the same count and under the same terms, next, B5: “no binding (tested: 100 nM)”; B6: “no binding (tested: 100 nM)”; B7: “no binding (tested: 100 nM)”.
On the same count and under the same terms, under B8 stands “no binding (tested: 100 nM)”.

A word on the Kd: it is the concentration at which binding is half-saturated. A lower Kd goes with a tighter complex. What is called koff is the first-order rate constant of dissociation. Low readings indicate slow dissociation, high ones fast dissociation. One may read the kon as the rate constant with which the complex forms. Lower therefore signals slower complex formation.
